Measured values published in patent US20240124553A1 (WASHINGTON UNIVERSITY, published 2024).

Experiments:
Assay in all cases: flow cytometry, transfected 293T cells
[1] = target: T1, CHIKV E2-E1 envelope glycoproteins (strain S27), E2 mutant D132A (chikungunya virus strain S27, UniProt Q8JUX5 1-1248; Q8JUX5 810-1248)
T1 construct: whole, on cells; E2 domain A

[2] = target: T2, CHIKV E2-E1 envelope glycoproteins (strain S27), E2 mutant A76S (chikungunya virus strain S27, UniProt Q8JUX5 1-1248; Q8JUX5 810-1248)
T2 construct: whole, on cells; E2 domain A

[3] = target: T3, CHIKV E2-E1 envelope glycoproteins (strain S27), E2 mutant R36A (chikungunya virus strain S27, UniProt Q8JUX5 1-1248; Q8JUX5 810-1248)
T3 construct: whole, on cells; E2 domain A

[4] = target: T4, CHIKV E2-E1 envelope glycoproteins (strain S27), E2 mutant K66A (chikungunya virus strain S27, UniProt Q8JUX5 1-1248; Q8JUX5 810-1248)
T4 construct: whole, on cells; E2 domain A

[5] = target: T5, CHIKV E2-E1 envelope glycoproteins (strain S27), E2 mutant R104A (chikungunya virus strain S27, UniProt Q8JUX5 1-1248; Q8JUX5 810-1248)
T5 construct: whole, on cells; E2 domain A

[6] = target: T6, CHIKV E2-E1 envelope glycoproteins (strain S27), E2 mutant F115A (chikungunya virus strain S27, UniProt Q8JUX5 1-1248; Q8JUX5 810-1248)
T6 construct: whole, on cells; E2 domain A

[7] = target: T7, CHIKV E2-6K-E1 envelope proteins (strain S27) with E2 I217A (Chikungunya virus strain S27, UniProt Q8JUX5 1-1248; Q8JUX5 810-1248)
T7 construct: whole, on cells

B1: Mxra8-Fc (mouse Mxra8 extracellular domain fused to mouse IgG2b Fc) (Fc fusion)
chain: SGPSGTAAASSSLVSESVVSLAAGTQAVLRCQSPRMVWTQDRLHDRQRVVHWDLSGGPGSQRRRLVDMYSAGEQRVYEPRDRDRLLLSPSAFHDGNFSLLIRAVDRGDEGVYTCNLHHHYCHLDESLAVRLEVTEDPLLSRAYWDGEKEVLVVAHGAPALMTCINRAHVWTDRHLEEAQQVVHWDRQLPGVSHDRADRLLDLYASGERRAYGPPFLRDRVSVNTNAFARGDFSLRIDELERADEGIYSCHLHHHYCGLHERRVFHLQVTEPAFEPPARASPGNGSGHSSAPSPDPTLTRGHSIINVIVPEDHTHPSGPISTINPCPPCKECHKCPAPNLEGGPSVFIFPPNIKDVLMISLTPKVTCVVVDVSEDDPDVQISWFVNNVEVHTAQTQTHREDYNSTIRVVSTLPIQHQDWMSGKEFKCKVNNKDLPSPIERTISKIKGLVRAPQVYILPPPAEQLSRKDVSLTCLVVGFNPGDISVEWTSNGHTEENYKDTAPVLDSDGSYFIYSKLNMKTSKWEKTDSFSCNVRHEGLKNYYLKKTISRSPGK
[1]
  Binding Reactivity (% WT): 105 % WT
[2]
  Binding Reactivity (% WT): 85 % WT
[3]
  Binding Reactivity (% WT): 68.3 % WT
[4]
  Binding Reactivity (% WT): 93.1 % WT
[5]
  Binding Reactivity (% WT): 49.9 % WT
[6]
  Binding Reactivity (% WT): 3.3 % WT

B2: Mxra8-Fc (mouse Mxra8 extracellular domain fused to mouse IgG2b Fc) (Fc fusion)
chain: B1 chain
[7]
  Binding Reactivity (% WT): 12.3 % WT
